# B1: TPR t1 (parent)
# chain: GACCAAUCUGCCCUCAGAGCUCGAGAACAUCUUCGGAUGCAGAGGAGGCAGGCUUCGGUGGCGCGAUAGCGCCAACGUCCUCAACCUCCAAUGCAUCCCACCACAUGAUGAUGCCUGAAGAGCCUUGGUUUUUUG
# Variants of: B1
# Test: polymerase ribozyme fitness, log enrichment relative to wild type (log ratio); higher = more active; in vitro selection for triplet polymerase activity
# In short: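 Fitness compares each genotype's enrichment to that of the wild type on a logarithmic scale, averaging replicates with inverse-variance weights. The logarithm is base 2. Enrichment came from Illumina sequencing of input and output libraries after one triplicate round of in vitro selection, which included frozen incubation at −7 °C, of PCR-built, transcribed mutant libraries of each subunit of a heterodimeric triplet polymerase ribozyme. Only genotypes with ≥10 input reads and ≥1 read per output were kept.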
row,Variant,polymerase ribozyme fitness (log ratio)
1,GACCAAUCUGCCCUCAGAGCUCGAGAACAUCUUCGGAUGCAGAGGAGGCAGGCUUCGGUGGCGCGAUAGCGCCAACGUCCUCAACCUCCAAUGCAUCCCACCACAUGAUGAGGCCGGAAGAGCCUUGGUUUUUUG [U112G U116G],-2.14
2,GACCAAUCUGCCCUCAGAGCUCGAGAACAUCUUCGGAUGCAGAGGAGGCAGGCUUCGGUGGCGCGAUAGCGCCAACGUCCUCAACCUCCAAUGCAUCCCACCACAUGAUGAUACCUGAAGAGCCUUGGUCUUUUG [G113A U130C],-1.16
3,GACCAAUCUGCCCUCAGAGCUCGAGAACAUCUUCGGAUGCAGAGGAGGCAGGCUUCGGUGGCGCGAUAGCGCCAACGUCCUCAACCUCCAAUGCAUCCCACCACAUGAUGAUACCUGAAGAGCCUUGGUAUUUUG [G113A U130A],-2.33
4,GACCAAUCUGCCCUCAGAGCUCGAGAACAUCUUCGGAUGCAGAGGAGGCAGGCUUCGGUGGCGCGAUAGCGCCAACGUCCUCAACCUCCAAUGCAUCCCACCACAUGAUGAUAACUGAAGAGCCAUGGUUUUAUG [G113A C114A U125A U133A],-3.52
5,GACCAAUCUGCCCUCAGAGCUCGAGAACAUCUUCGGAUGCAGAGGAGGCAGGCUUCGGUGGCGCGAUAGCGCCAACGUCCUCAACCUCCAAUGCAUCCCACCACAUGAUGAGGCCUGAAGAGCCUUGGUAUUUUG [U112G U130A],0.613
6,GACCAAUCUGCCCUCAGAGCUCGAGAACAUCUUCGGAUGCAGAGGAGGCAGGCUUCGGUGGCGCGAUAGCGCCAACGUCCUCAACCUCCAAUGCAUCCCACCACAUGAUGAUCCCUGAAGAGCUUUGGUUUUUUG [G113C C124U],-2.58
7,GACCAAUCUGCCCUCAGAGCUCGAGAACAUCUUCGGAUGCAGAGGAGGCAGGCUUCGGUGGCGCGAUAGCGCCAACGUCCUCAACCUCCAAUGCAUCCCACCACAUGAUGAGGCCUGAAGAGCCUUAGUUUUUUG [U112G G127A],-1.12
8,GACCAAUCUGCCCUCAGAGCUCGAGAACAUCUUCGGAUGCAGAGGAGGCAGGCUUCGGUGGCGCGAUAGCGCCAACGUCCUCAACCUCCAAUGCAUCCCACCACAUGAUGAUACCUGAAGAGCCUUGCUUUUUUG [G113A G128C],-2.85
9,GACCAAUCUGCCCUCAGAGCUCGAGAACAUCUUCGGAUGCAGAGGAGGCAGGCUUCGGUGGCGCGAUAGCGCCAACGUCCUCAACCUCCAAUGCAUCCCACCACAUGAUGAUACCUGAAGAGCCCUGGUUUUUUG [G113A U125C],-1.17
10,GACCAAUCUGCCCUCAGAGCUCGAGAACAUCUUCGGAUGCAGAGGAGGCAGGCUUCGGUGGCGCGAUAGCGCCAACGUCCUCAACCUCCAAUGCAUCCCACCACAUGAUGACGCCUAAAGAGCCUUGGUUUUUUG [U112C G117A],-0.498
11,GACCAAUCUGCCCUCAGAGCUCGAGAACAUCUUCGGAUGCAGAGGAGGCAGGCUUCGGUGGCGCGAUAGCGCCAACGUCCUCAACCUCCAAUGCAUCCCACCACAUGAUGAGGCCUGAAGAGACUUGGUUUUUUG [U112G C123A],-2
12,GACCAAUCUGCCCUCAGAGCUCGAGAACAUCUUCGGAUGCAGAGGAGGCAGGCUUCGGUGGCGCGAUAGCGCCAACGUCCUCAACCUCCAAUGCAUCCCACCACAUGAUGAUACCUGAAGAGCCUGGGUUUUUUG [G113A U126G],-3.39
13,GACCAAUCUGCCCUCAGAGCUCGAGAACAUCUUCGGAUGCAGAGGAGGCAGGCUUCGGUGGCGCGAUAGCGCCAACGUCCUCAACCUCCAAUGCAUCCCACCACAUGAUGAGGCCUAAAGAGCCUUGGUUUUUUG [U112G G117A],-2.9
14,GACCAAUCUGCCCUCAGAGCUCGAGAACAUCUUCGGAUGCAGAGGAGGCAGGCUUCGGUGGCGCGAUAGCGCCAACGUCCUCAACCUCCAAUGCAUCCCACCACAUGAUGAGGCCUUAAGAGCCUUGGUUUUUUG [U112G G117U],-1.25
15,GACCAAUCUGCCCUCAGAGCUCGAGAACAUCUUCGGAUGCAGAGGAGGCAGGCUUCGGUGGCGCGAUAGCGCCAACGUCCUCAACCUCCAAUGCAUCCCACCACAUGAUGAUACCUGAAGACCCUUGGUUUUUUG [G113A G122C],-3.36
16,GACCAAUCUGCCCUCAGAGCUCGAGAACAUCUUCGGAUGCAGAGGAGGCAGGCUUCGGUGGCGCGAUAGCGCCAACGUCCUCAACCUCCAAUGCAUCCCACCACAUGAUGAGGCCUGAAGAGCCUUGGUUUUUUU [U112G G135U],-1.01
17,GACCAAUCUGCCCUCAGAGCUCGAGAACAUCUUCGGAUGCAGAGGAGGCAGGCUUCGGUGGCGCGAUAGCGCCAACGUCCUCAACCUCCAAUGCAUCCCACCACAUGAUGAGGCCAUAAGGGCCUUGGUUUUUUG [U112G U116A G117U A121G],0.651
18,GACCAAUCUGCCCUCAGAGCUCGAGAACAUCUUCGGAUGCAGAGGAGGCAGGCUUCGGUGGCGCGAUAGCGCCAACGUCCUCAACCUCCAAUGCAUCCCACCACAUGAUGAUACCUGAAGAGGAUUGGUUUUUUG [G113A C123G C124A],-3.66
19,GACCAAUCUGCCCUCAGAGCUCGAGAACAUCUUCGGAUGCAGAGGAGGCAGGCUUCGGUGGCGCGAUAGCGCCAACGUCCUCAACCUCCAAUGCAUCCCACCACAUGAUGAUACCUGAAGAGCCUUGGUUAUUUG [G113A U131A],-0.84
20,GACCAAUCUGCCCUCAGAGCUCGAGAACAUCUUCGGAUGCAGAGGAGGCAGGCUUCGGUGGCGCGAUAGCGCCAACGUCCUCAACCUCCAAUGCAUCCCACCACAUGAUGAGACCUGAAGAGCCCUGGUUUUUUG [U112G G113A U125C],-2.43
21,GACCAAUCUGCCCUCAGAGCUCGAGAACAUCUUCGGAUGCAGAGGAGGCAGGCUUCGGUGGCGCGAUAGCGCCAACGUCCUCAACCUCCAAUGCAUCCCACCACAUGAUGACGCCUGAAGAGCGUUGAUUUUUUG [U112C C124G G128A],-0.155

# — the RNAGym collection of RNA variant scans (doi:10.1073/pnas.2313332121)
